For assay [1], the target named is T1, GHRH receptor (spleen cells, 3- and 14-month old rats) (Rattus norvegicus, UniProt Q02644).
T1 chain: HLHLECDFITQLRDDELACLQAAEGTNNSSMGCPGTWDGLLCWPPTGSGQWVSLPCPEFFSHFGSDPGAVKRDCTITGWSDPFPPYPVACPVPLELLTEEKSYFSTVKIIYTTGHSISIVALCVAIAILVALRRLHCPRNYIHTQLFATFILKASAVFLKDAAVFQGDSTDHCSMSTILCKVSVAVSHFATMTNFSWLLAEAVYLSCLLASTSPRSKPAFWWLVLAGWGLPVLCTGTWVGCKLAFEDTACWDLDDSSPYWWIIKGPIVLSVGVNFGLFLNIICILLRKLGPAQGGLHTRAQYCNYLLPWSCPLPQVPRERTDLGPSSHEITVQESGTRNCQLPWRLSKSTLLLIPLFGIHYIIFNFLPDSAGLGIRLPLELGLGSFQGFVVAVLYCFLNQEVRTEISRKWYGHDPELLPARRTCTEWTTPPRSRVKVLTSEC
In words: homologous competitive radioligand binding.

In assay [2] the target is T2, GHRH receptor (thymus cells, 3- and 14-month old rats) (Rattus norvegicus, UniProt Q02644).
T2 chain: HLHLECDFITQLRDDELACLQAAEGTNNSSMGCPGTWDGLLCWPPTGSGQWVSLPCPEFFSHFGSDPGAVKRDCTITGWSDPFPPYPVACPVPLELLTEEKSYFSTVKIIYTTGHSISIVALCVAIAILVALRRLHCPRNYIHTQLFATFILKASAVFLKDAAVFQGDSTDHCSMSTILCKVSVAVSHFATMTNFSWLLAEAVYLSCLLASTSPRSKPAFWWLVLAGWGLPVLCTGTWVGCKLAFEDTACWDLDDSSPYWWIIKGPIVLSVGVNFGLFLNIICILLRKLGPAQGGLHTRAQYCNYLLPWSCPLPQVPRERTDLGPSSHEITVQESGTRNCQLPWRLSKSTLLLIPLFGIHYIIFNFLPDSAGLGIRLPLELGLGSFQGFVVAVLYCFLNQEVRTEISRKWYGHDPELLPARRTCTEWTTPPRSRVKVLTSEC
In words: homologous competitive radioligand binding.

These results are taken from publication PMC3736351 (2014).

Turning to MPLWVFFFVILTLSNSSHCSPPPPLTLRM [GHRH 1-29], the Kd – broadly, the free concentration of one partner at which half of the binding sites on the other are occupied at equilibrium, for simple one-to-one binding – in assay [1] came out at 2 nM; in assay [2] it was 1 nM.
